The values that follow come from article PMC11242853, “The Antimicrobial Activity of Human Defensins at Physiological Non-Permeabilizing Concentrations Is Caused by the Inhibition of the Plasma Membrane H^+-ATPases” (International Journal of Molecular Sciences, 2024).

Test [1] deals with Lactococcus lactis subsp. lactis (strain IL1403). Briefly: Antimicrobial spread-plate (CFU) killing assay, fermenting L. lactis. The test is classed as cell-based. To be noted: human lactoferrin 0.062 µM; fermentative conditions; relative to untreated control. On the procedure: Microbial susceptibility to the peptides was determined in a spread-plate assay as described previously. Briefly, cell suspensions (10^6 cells/mL) in Tris buffer (10 mM Tris-HCl, pH 7.4) were incubated for 90 min at 37 °C with 2-fold serial peptide dilutions. Peptide concentrations ranged from 0 to 2 μM. After incubation, the number of viable cells was determined by plating aliquots (100 μL) in duplicate on plates (SDA for C. albicans, TSA for P. aeruginosa, and M17G agarified medium for L. lactis) that had been dried for 30 min at room temperature in a laminar flow hood. Plates were incubated for 24–48 h at 30 °C (C. albicans and L. lactis) or 24 h at 37 °C (P. aeruginosa). Dilutions yielding 50–200 colonies were counted. Cell viability values, expressed as colony-forming units (CFUs), were calculated relative to the incubation without added peptides and represent the means ± standard deviation (SD) from duplicates of three independent experiments. For inhibition assays, unless otherwise noted, cell suspensions were preincubated (15 min at 37 °C) with the appropriate inhibitor prior to the addition of peptides, but the inhibitor was present throughout the incubation period with the peptide (90 min at 37 °C). Other specific experimental conditions are described as appropriate. […]

A further test relates to C. albicans cells. Briefly: Membrane potential monitoring with DiBAC4(3), flow cytometry. Particulars: peptides at NPIC, hLf 5 μM, BM2 0.25 μM; DiBAC4(3) 1 µg/mL. It counts as cell-based, Candida albicans. The method, then:
The membrane potential-sensitive probe DiBAC4(3) was used to monitor the transmembrane electrical potential of C. albicans cells as previously described with slight modifications. Briefly, cells were harvested from mid-log phase cultures via centrifugation and suspended in Tris buffer. The cell suspension was adjusted to 10^6 cells/mL and then incubated with DiBAC4(3) at a final concentration of 1 µg/mL for 30 min. Fluorescence was measured using a CytoFLEX S flow cytometer (Beckman Coulter) with excitation at 561 nm and emission at 690/50 nm. For each treatment, 5000 events were counted per experiment with an exposure time of 1000 ms. Results were analyzed using CytExpert 2.1 Acquisition software. As positive controls, human lactoferrin and BM2 peptide were used. Three independent experiments were performed and data are expressed as means ± SD.
In general terms: Flow cytometry measures light scatter and fluorescence of single cells or particles in a stream.

The next test deals with Pma1p H^+-ATPase. To be noted: Table 2; no reference given. On the procedure:
A whole-cell proton transport assay was used to evaluate the possible inhibition of the fungal Pma1p H^+-ATPase by defensins.
To measure proton pumping from Pma1p H^+-ATPase activity, a glucose-induced acid extrusion assay was performed as previously described with modifications. Briefly, cultures of C. albicans cells were grown to mid-log phase in SDB medium and washed twice in 100 mM Tris-HCl (pH 8.0). The cells were then resuspended in 50 mM KCl and maintained for 18 h at 4 °C to reduce metabolic activity to a minimum (starvation conditions). To determine external acidification, starved cells (approximately 10^7 cells/mL) were incubated for 15 min at 37 °C in the presence or absence of the defensins (2 x NPIC). Cells incubated with 20 µM human lactoferrin or 0.5 µM BM2 peptide were used as positive controls. The initial pH of the cell suspension was adjusted to approximately pH 6.8 with HCl, and glucose (final concentration of 2.5 mM) was immediately added to the cell suspension. The pH of the medium was recorded at 5-min intervals for 20 min using a SevenMulti S50-K pH meter (Mettler-Toledo, Greifensee, Switzerland) with a calibrated electrode (InLab 413, Mettler-Toledo) under constant stirring. Each experiment was repeated three times in an independent manner.

Details of test [2]: method as in 19 sources, ref 24; PMID 3290255; doi:10.1172/JCI113527; 24. Lehrer R.I. Ganz T. Szklarek D. Selsted M.E. Modulation of the in vitro candidacidal activity of human neutrophil defensins by target cell metabolism and divalent cations J. Clin. Invest. 1988 81 || [47]; PMID 11083633; doi:10.1128/AAC.44.12.3310-3316.2000; 47. Edgerton M. Koshlukova S.E. Araujo M.W. Patel R.C. Dong J. Bruenn J.A. Salivary histatin 5 and human neutrophil defensin 1 kill Candida albicans via shared pathways Antimicrob. Agents Chemother. 2 ||| ref 20 = [20]; PMID 17074797; doi:10.1128/AAC.00478-06; 20. Vylkova S. Nayyar N. Li W. Edgerton M. Human beta-defensins kill Candida albicans in an energy-dependent and salt-sensitive manner without causing membrane disruption Antimicrob. Agents Chemother. ||| ref 24, 62 (HNP-1); 62, 63 (HNP-4); 20 (hBD-2); 12, 20 (hBD-3); 34, 35, 64 cidal and 65, 66 static (lactoferrin) ||| ref 26 (HNP-1); 12 (HNP-4); 11 (hBD-2, hBD-3); 43, 67 (lactoferrin) ||| ref 14 (HNP-1); 23 (HNP-4); Yes 11, 13 / No 20 (hBD-2); No 20 / Yes 11 (hBD-3); 31, 34, 42 (lactoferrin) ||| ... To be noted: Table 2, cited from earlier work.

B1: human lactoferrin: Recombinant human apo-lactoferrin (hLf), 691 amino acid γ-core protein that inhibits microbial PM H+-ATPases; control (protein, UniProt P02788 20-710, looked up)
Lactotransferrin: GRRRSVQWCAVSQPEATKCFQWQRNMRKVRGPPVSCIKRDSPIQCIQAIAENRADAVTLDGGFIYEAGLAPYKLRPVAAEVYGTERQPRTHYYAVAVVKKGGSFQLNELQGLKSCHTGLRRTAGWNVPIGTLRPFLNWTGPPEPIEAAVARFFSASCVPGADKGQFPNLCRLCAGTGENKCAFSSQEPYFSYSGAFKCLRDGAGDVAFIRESTVFEDLSDEAERDEYELLCPDNTRKPVDKFKDCHLARVPSHAVVARSVNGKEDAIWNLLRQAQEKFGKDKSPKFQLFGSPSGQKDLLFKDSAIGFSRVPPRIDSGLYLGSGYFTAIQNLRKSEEEVAARRARVVWCAVGEQELRKCNQWSGLSEGSVTCSSASTTEDCIALVLKGEADAMSLDGGYVYTAGKCGLVPVLAENYKSQQSSDPDPNCVDRPVEGYLAVAVVRRSDTSLTWNSVKGKKSCHTAVDRTAGWNIPMGLLFNQTGSCKFDEYFSQSCAPGSDPRSNLCALCIGDEQGENKCVPNSNERYYGYTGAFRCLAENAGDVAFVKDVTVLQNTDGNNNEAWAKDLKLADFALLCLDGKRKPVTEARSCHLAMAPNHAVVSRMDKVERLKQVLLHQQAKFGRNGSDCPDKFCLFQSETKNLLFNDNTECLARLHGKTTYEKYLGPQYVAGITNLKKCSTSPLLEACEFLRK
modifications: apo form
notes: control
As for B1, in test [1], the “cell viability of L. lactis” value is given as 13% ± 5%. In the test on C. albicans cells, the “transmembrane electrical potential (DiBAC4(3) fluorescence)” value is “increase in DiBAC4(3) fluorescence”. Besides, the “Inhibition of H^+-extrusion (yeast)” value with Pma1p H^+-ATPase is reported as “Yes”. The “Cell death inhibitors, intracellular: Azide” value in test [2] (24 (HNP-1), 20 (hBD-2, hBD-3), 34 (lactoferrin)) is on record as “No”. Further, in test [2] (Gm+ Gram-positive bacteria, Gm− Gram-negative bacteria, F fungi, V viruses, P protozoa, no reference given), the Antimicrobial range entry is reported as “Gm +,Gm −,F,V,P”. Also, in test [2], the “Cell death inhibitors, extracellular: Tok1p inhibitors (TEA)” value is recorded as “Yes”; the “Cell death inhibitors, intracellular: Oligomycin A” value was “Yes”; the “Cell death inhibitors, intracellular: Piericidin A” value is listed as “Yes”; the “Partial K^+-efflux” value was “Yes”. In addition, the Membrane permeabilization entry in test [2] (ref 14 (HNP-1), 23 (HNP-4), Yes 11, 13 / No 20 (hBD-2), No 20 / Yes 11 (hBD-3), 31, 34, 42 (lactoferrin)) is “No”. For the same molecule, the “Cell death inhibitors, extracellular: Ca^2+ or Mg^2+” value in test [2] (ref 24 (HNP-1), 20 (hBD-2, hBD-3), 43 (lactoferrin)) is reported as “Yes”. Further, the “Cell death inhibitors, intracellular: CCCP or DNP” value in test [2] (ref 24 (HNP-1), 34 (lactoferrin)) is “Yes”. Moreover, in test [2] (ref 24 (HNP-1), 34, 35 (lactoferrin)), the “Cell death inhibitors, extracellular: Anoxia” value is “Yes”. In addition, the Membrane depolarization entry in test [2] (ref 26 (HNP-1), 12 (HNP-4), 11 (hBD-2, hBD-3), 43, 67 (lactoferrin)) is listed as “Yes”. The ATP increment entry in test [2] (ref 47 (HNP-1), 35 (lactoferrin)) is on record as “Yes”. For the same molecule, in test [2] (ref 68 (HNP-1), 69 (HNP-4), 20 (hBD-2), No 11, 12 / Yes 20 (hBD-3), 31, 36, 43 (lactoferrin)), the “Cell death inhibitors, extracellular: K^+ or Na^+” value is “Yes”.
